Where two headings read alike, the source gives them in different places.
How the values were obtained:
PC-3 tumor xenografts = assay: PET/CT imaging in mice bearing PC-3 tumor xenografts; format: in vivo; settings: 1 h post injection, mice
Description: (§1) Imaging and biodistribution studies were performed on male NOD.Cg-Rag1^tm1Mom Il2rg^tm1Wjl/SzJ (NRG) mice following previously published procedures. The experiments were conducted following the guidelines established by the Canadian Council on Animal Care and approved by Animal Ethics Committee of the University of British Columbia. The mice were sedated (2.5% isoflurane in oxygen) and injected with 5 × 10^6 PC-3 cells (100 µL; 1:1 PBS/Matrigel) subcutaneously behind the left shoulder. The tumor-bearing mice were used for PET/CT imaging and biodistribution studies when the tumor grew to 5–8 mm in diameter.
PET/CT imaging experiments were performed on a Siemens (Knoxville, TN, USA) Inveon micro PET/CT scanner. Each tumor-bearing mouse was injected with ~3–6 MBq of ^68Ga-labeled tracer through a lateral caudal tail vein under anaesthesia. At around 50 min post injection, a 10 min CT scan was obtained first for localization and attenuation correction after segmentation for reconstructing the PET image, followed by a 10 min static PET scan.

physchem = settings: n-octanol/DPBS, pH 7.4
Description: LogD7.4 values of [^68Ga]Ga-LW02075, [^68Ga]Ga-LW02050, and [^68Ga]Ga-SB3 were measured via the shake flask method. An aliquot of the ^68Ga-labeled tracer (~1.85 MBq) was added to a 15 mL falcon tube containing 3 mL of n-octanol and 3 mL of DPBS (pH 7.4) followed by 1 min of vortex (n = 3). After that, the mixture was centrifuged at 5000 rpm for 10 min, and samples of the n-octanol (1 mL) and buffer (1 mL) layers were collected and counted on a Perkin Elmer (Waltham, MA, USA) Wizard2 2480 automatic gamma counter. The LogD7.4 values of [^68Ga]Ga-LW02075, [^68Ga]Ga-LW02050, and [^68Ga]Ga-SB3 were calculated following the equation: LogD7.4 = log10[(counts in the n-octanol phase)/(counts in the buffer phase)].

[1] = Ex vivo biodistribution in PC-3 tumor-bearing mice; settings: male, mouse, iv, total radioactivity, mean ± SD, n = 4; for tissue uptake at 1 h: NOD.Cg-Rag1^tm1Mom Il2rg^tm1Wjl/SzJ (NRG); for tissue to tissue ratio at 1 h: NOD.Cg-Rag1tm1Mom Il2rgtm1Wjl/SzJ (NRG)
Description: Biodistribution studies were conducted for ^68Ga-labeled SB3, LW02075 and LW02050 in PC-3 tumor-bearing mice (n = 4).
as §1
For biodistribution studies, the mice were injected with the radiotracer (~2–4 MBq), as described above. Blocking of [^68Ga]Ga-LW02075 and [^68Ga]Ga-LW02050 was conducted by co-injection with 100 μg nonradioactive Ga-LW02075 and Ga-LW02050, respectively, through a lateral caudal tail vein under anaesthesia. At 1 h post injection, the mice were sedated and euthanized by CO2 inhalation. Blood was collected via cardiac puncture, and organs/tissues of interest were collected, weighed, and counted on a Perkin Elmer (Waltham, MA, USA) Wizard2 2480 automatic gamma counter.

With `CC(C)C[C@H](NC(=O)[C@H](Cc1c[nH]cn1)NC(=O)CNC(=O)[C@@H](NC(=O)[C@H](C)NC(=O)[C@H](Cc1c[nH]c2ccccc12)NC(=O)[C@H](CCC(N)=O)NC(=O)[C@@H](Cc1ccccc1)NC(=O)COCC(=O)Nc1ccc(CNC(=O)CN2CCN(CC(=O)O)CCN(CC(=O)O)CCN(CC(=O)O)CC2)cc1)C(C)C)C(=O)NO` [[^68Ga]Ga-LW02075, [^68Ga]Ga-DOTA-pABzA-DIG-D-Phe-Gln-Trp-Ala-Val-Gly-His-Leu-NHOH, metal not drawn] the “Excretion pathway in PET images” value (PC-3 tumor xenografts) was “excreted primarily through the renal pathway”, the “Pancreas in PET images” value (PC-3 tumor xenografts) was “high pancreas uptake” and the logD (physchem) was -2.09 ± 0.05. The tissue uptake at 1 h ([1]; PC-3 tumor, 1 h blocked: co-injected with 100 µg nonradioactive Ga-complexed standard, read-out: PC-3 tumor uptake, blocked) was 1.83 ± 0.22 %ID/g, the tissue uptake at 1 h ([1]; PC-3 tumor, 1 h post injection, read-out: PC-3 tumor uptake) was 3.97 ± 1.71 %ID/g and the tissue uptake at 1 h ([1]; adrenal glands, 1 h blocked: co-injected with 100 µg nonradioactive Ga-complexed standard, read-out: Adrenal glands uptake, blocked) was 1.02 ± 0.59 %ID/g. For the same molecule, the tissue uptake at 1 h ([1]; adrenal glands, 1 h post injection, read-out: Adrenal glands uptake) was 4.42 ± 2.41 %ID/g, the tissue uptake at 1 h ([1]; blood, 1 h blocked: co-injected with 100 µg nonradioactive Ga-complexed standard, read-out: Blood uptake, blocked) was 1.15 ± 0.26 %ID/g and the tissue uptake at 1 h ([1]; blood, 1 h post injection, read-out: Blood uptake) was 0.76 ± 0.41 %ID/g. The tissue uptake at 1 h ([1]; bone, 1 h blocked: co-injected with 100 µg nonradioactive Ga-complexed standard, read-out: Bone uptake, blocked) was 0.21 ± 0.07 %ID/g, the tissue uptake at 1 h ([1]; bone, 1 h post injection, read-out: Bone uptake) was 0.2 ± 0.2 %ID/g and the tissue uptake at 1 h ([1]; brain, 1 h blocked: co-injected with 100 µg nonradioactive Ga-complexed standard, read-out: Brain uptake, blocked) was 0.03 ± 0.01 %ID/g. It also gave a tissue uptake at 1 h ([1]; brain, 1 h post injection, read-out: Brain uptake) of 0.03 ± 0.01 %ID/g, a tissue uptake at 1 h ([1]; fat, 1 h blocked: co-injected with 100 µg nonradioactive Ga-complexed standard, read-out: Fat uptake, blocked) of 0.12 ± 0.02 %ID/g and a tissue uptake at 1 h ([1]; fat, 1 h post injection, read-out: Fat uptake) of 0.08 ± 0.05 %ID/g. It also gave a tissue uptake at 1 h ([1]; heart, 1 h blocked: co-injected with 100 µg nonradioactive Ga-complexed standard, read-out: Heart uptake, blocked) of 0.34 ± 0.04 %ID/g, a tissue uptake at 1 h ([1]; heart, 1 h post injection, read-out: Heart uptake) of 0.24 ± 0.13 %ID/g and a tissue uptake at 1 h ([1]; kidneys, 1 h blocked: co-injected with 100 µg nonradioactive Ga-complexed standard, read-out: Kidneys uptake, blocked) of 4.98 ± 1.59 %ID/g. It also gave a tissue uptake at 1 h ([1]; kidneys, 1 h post injection, read-out: Kidneys uptake) of 3.11 ± 1.18 %ID/g, a tissue uptake at 1 h ([1]; large intestine, 1 h blocked: co-injected with 100 µg nonradioactive Ga-complexed standard, read-out: Large intestine uptake, blocked) of 0.4 ± 0.17 %ID/g and a tissue uptake at 1 h ([1]; large intestine, 1 h post injection, read-out: Large intestine uptake) of 1.71 ± 0.47 %ID/g. It also gave a tissue uptake at 1 h ([1]; liver, 1 h blocked: co-injected with 100 µg nonradioactive Ga-complexed standard, read-out: Liver uptake, blocked) of 5.92 ± 1.69 %ID/g, a tissue uptake at 1 h ([1]; liver, 1 h post injection, read-out: Liver uptake) of 4.14 ± 1.5 %ID/g and a tissue uptake at 1 h ([1]; lungs, 1 h blocked: co-injected with 100 µg nonradioactive Ga-complexed standard, read-out: Lungs uptake, blocked) of 0.94 ± 0.17 %ID/g. For the same molecule, the tissue uptake at 1 h ([1]; lungs, 1 h post injection, read-out: Lungs uptake) was 0.75 ± 0.41 %ID/g, the tissue uptake at 1 h ([1]; muscle, 1 h blocked: co-injected with 100 µg nonradioactive Ga-complexed standard, read-out: Muscle uptake, blocked) was 0.27 ± 0.14 %ID/g and the tissue uptake at 1 h ([1]; muscle, 1 h post injection, read-out: Muscle uptake) was 0.21 ± 0.18 %ID/g. For the same molecule, the tissue uptake at 1 h ([1]; pancreas, 1 h blocked: co-injected with 100 µg nonradioactive Ga-complexed standard, read-out: Pancreas uptake, blocked) was 1.55 ± 0.83 %ID/g, the tissue uptake at 1 h ([1]; pancreas, 1 h post injection, read-out: Pancreas uptake) was 17.8 ± 5.24 %ID/g and the tissue uptake at 1 h ([1]; small intestine, 1 h blocked: co-injected with 100 µg nonradioactive Ga-complexed standard, read-out: Small intestine uptake, blocked) was 5.62 ± 1.86 %ID/g. The tissue uptake at 1 h ([1]; small intestine, 1 h post injection, read-out: Small intestine uptake) was 6.72 ± 1.94 %ID/g, the tissue uptake at 1 h ([1]; spleen, 1 h blocked: co-injected with 100 µg nonradioactive Ga-complexed standard, read-out: Spleen uptake, blocked) was 0.35 ± 0.12 %ID/g and the tissue uptake at 1 h ([1]; spleen, 1 h post injection, read-out: Spleen uptake) was 0.26 ± 0.13 %ID/g. It also gave a tissue uptake at 1 h ([1]; stomach, 1 h blocked: co-injected with 100 µg nonradioactive Ga-complexed standard, read-out: Stomach uptake, blocked) of 0.73 ± 0.29 %ID/g, a tissue uptake at 1 h ([1]; stomach, 1 h post injection, read-out: Stomach uptake) of 1.23 ± 0.22 %ID/g and a tissue uptake at 1 h ([1]; testes, 1 h blocked: co-injected with 100 µg nonradioactive Ga-complexed standard, read-out: Testes uptake, blocked) of 0.3 ± 0.06 %ID/g. It also gave a tissue uptake at 1 h ([1]; testes, 1 h post injection, read-out: Testes uptake) of 0.17 ± 0.1 %ID/g, a tissue to tissue ratio at 1 h ([1]; tumor and bone, 1 h blocked: co-injected with 100 µg nonradioactive Ga-complexed standard, read-out: Tumor/bone uptake ratio, blocked) of 9.3 ± 2.39 and a tissue to tissue ratio at 1 h ([1]; tumor and bone, 1 h post injection, read-out: Tumor/bone uptake ratio) of 30.6 ± 18.9. The tissue to tissue ratio at 1 h ([1]; tumor and kidney, 1 h blocked: co-injected with 100 µg nonradioactive Ga-complexed standard, read-out: Tumor/kidney uptake ratio, blocked) was 0.39 ± 0.09, the tissue to tissue ratio at 1 h ([1]; tumor and kidney, 1 h post injection, read-out: Tumor/kidney uptake ratio) was 1.28 ± 0.33 and the tissue to tissue ratio at 1 h ([1]; tumor and muscle, 1 h blocked: co-injected with 100 µg nonradioactive Ga-complexed standard, read-out: Tumor/muscle uptake ratio, blocked) was 7.85 ± 3.13. The tissue to tissue ratio at 1 h ([1]; tumor and muscle, 1 h post injection, read-out: Tumor/muscle uptake ratio) was 24.8 ± 9.99, the tissue to tissue ratio at 1 h ([1]; tumor and pancreas, 1 h blocked: co-injected with 100 µg nonradioactive Ga-complexed standard, read-out: Tumor/pancreas uptake ratio, blocked) was 1.46 ± 0.76 and the tissue to tissue ratio at 1 h ([1]; tumor and pancreas, 1 h post injection, read-out: Tumor/pancreas uptake ratio) was 0.22 ± 0.05. The tissue to tissue ratio at 1 h ([1]; tumor and whole blood, 1 h blocked: co-injected with 100 µg nonradioactive Ga-complexed standard, read-out: Tumor/blood uptake ratio, blocked) was 1.65 ± 0.4 and the tissue to tissue ratio at 1 h ([1]; tumor and whole blood, 1 h post injection, read-out: Tumor/blood uptake ratio) was 5.51 ± 1.49.

— paper PMC11243334, “Synthesis and Evaluation of the First ^68Ga-Labeled C-Terminal Hydroxamate-Derived Gastrin-Releasing Peptide Receptor-Targeted Tracers for Cancer Imaging with Positron Emission Tomography” (Molecules, 2024)
